In patent US20160321394A1 (ACADEMIA SINICA, published 2016):
Where no end group is shown, it is not given here.

Key:
[1] = target: full-length recombinant human GRP78 (glucose-regulated protein 78), N-His tagged (human) (UniProt P11021); experiment: Biacore X SPR, 50 µM peptide over immobilised N-His GRP78; RU/MW normalised to L-peptide
[2] = target: T1, full-length recombinant human GRP78 (glucose-regulated protein 78), N-His tagged (human, UniProt P11021 19-654, limits assumed); experiment: as above
T1 construct: Immobilised on a Biacore NTA chip by Ni chelation plus amine coupling; also called His-tagged GRP78; human glucose-regulated protein 78; not shown: N-terminal His tag
T1 sequence (P11021 19-654 limits assumed): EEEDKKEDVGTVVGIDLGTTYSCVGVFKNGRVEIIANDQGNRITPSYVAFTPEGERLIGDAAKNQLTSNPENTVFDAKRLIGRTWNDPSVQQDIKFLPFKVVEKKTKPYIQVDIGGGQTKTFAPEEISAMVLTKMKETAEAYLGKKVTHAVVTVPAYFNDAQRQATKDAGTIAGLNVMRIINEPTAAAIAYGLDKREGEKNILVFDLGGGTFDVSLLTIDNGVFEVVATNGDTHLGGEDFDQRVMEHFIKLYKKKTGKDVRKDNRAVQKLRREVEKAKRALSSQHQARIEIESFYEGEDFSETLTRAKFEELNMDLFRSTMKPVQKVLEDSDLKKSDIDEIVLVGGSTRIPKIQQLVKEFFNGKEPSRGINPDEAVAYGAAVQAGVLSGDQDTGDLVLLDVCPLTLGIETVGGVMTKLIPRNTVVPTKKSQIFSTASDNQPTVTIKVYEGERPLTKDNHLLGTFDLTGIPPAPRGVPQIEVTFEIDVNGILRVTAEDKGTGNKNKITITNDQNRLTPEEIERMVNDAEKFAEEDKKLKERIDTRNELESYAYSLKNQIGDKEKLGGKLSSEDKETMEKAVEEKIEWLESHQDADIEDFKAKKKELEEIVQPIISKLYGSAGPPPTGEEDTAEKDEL
Experimental: The chip NTA and HBS-P buffer were obtained from GE Healthcare. Sensor chip NTA was prepared by combining Ni-ion chelation and covalent immobilization of N-His tagged GRP78 via amine-coupling with nitrilotriacetic acid on chip NTA (FIG. 6). To immobilize GRP78 protein on sensor chip for peptide-binding assay using Biacore, the methods based on Ni-ion chelation and amine coupling reaction were combined. Sensor chip NTA was prepared by chelation followed by covalent immobilization of N-His-tagged GRP78 via amine-coupling at the nitrilotriacetic acid group on chip NTA. The sensor chip NTA, HBS-P buffer and amine coupling kits were all obtained from GE Healthcare. First, the activation of chip surface using EDC and NHS reagents for amine coupling were according to the standard procedure from manufacturer's instruction. Additionally, one-minute pulse of NiCl₂ solution (500 μM) was used to attract His-tagged GRP78 to the surface of sensor chip and formed covalent bond subsequently in the condition of HBS-P buffer (pH 7.4). The resulting differences of RU were about 5,000˜6,000 RU. After de-activation by ethanolamine and washed with EDTA (3 mM), the prepared sensor chip was then applied to Biacore X for binding assay. The HBS-P buffer containing 1 mM Gly was used as running buffer for binding assay. Solution of 20 mM sodium hydroxide dissolved in running buffer was used to regenerate the chip surface by one-minute pulse.
The sensor chip thus prepared was applied to Biacore X for determining the binding between the peptides and GRP78. The HBS-P buffer containing 1 mM Gly was used as a running buffer. A solution of 20 mM sodium hydroxide dissolved in the running buffer was used to regenerate chip surface by 1-minute pulses.

Sequence of full-length recombinant human GRP78 (glucose-regulated protein 78), N-His tagged (human) (P11021 19-654 limits assumed): as above

| Binder | Binding index [1] | Binding index [2] |
| --- | --- | --- |
| RLLDTNRPYLWY [PB-2] | 3 |  |
| RLLDTNRPLLPY (synthetic 12-mer, lead peptide; also called positive control) [L-peptide] |  | 1 |
| RLLDTNRPLLGY [P-11] |  | 0.77 |
| RLLDTNRPHLPY [PA-6] |  | 0.47 |
| RLLDTNRPFLWY [PB-1] |  | 1.6 |
| RLLDTNRPLLLY [P-14] |  | 0.21 |
| RLLDTNRPQLPY [PA-5] |  | 0.3 |
| RLLDTNRPWLPY [PA-1] |  | 0.35 |
| RLLDTNRPNLPY [PA-4] |  | 0.31 |
| RLLDTNRPLLPY-NH2 [PB-3] |  | 1.15 |
